We go through one molecule from patent US8133978.

Assay [1] deals with Human interleukin-18 (recombinant human IL-18) (human) (UniProt Q14116). The assay is described as follows: cell-based or functional assay.
Assay [2] shares this target. The assay is described as follows: ELISA, IL-18 bp-Fc coated at 0.5 ug/ml, human IL-18 added at 100 ng/ml, antibody titrated, detection anti-rat IgG HRP, Abs 490 nm. (ELISA stands for enzyme-linked immunosorbent assay.)

Where only a bound is given, the exact number is not on record here.

Sequence of Human interleukin-18 (recombinant human IL-18) (human) (Q14116 37-193 limits assumed): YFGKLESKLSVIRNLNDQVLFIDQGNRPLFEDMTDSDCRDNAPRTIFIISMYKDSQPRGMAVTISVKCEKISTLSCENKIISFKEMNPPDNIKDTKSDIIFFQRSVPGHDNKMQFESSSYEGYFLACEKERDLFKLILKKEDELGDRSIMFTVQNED

B1: Parental rat antibody 2C10 (antibody, from another filing, V domains shown)
VH: EVQLQQSGAELVRPGTSVKLSCKVSGEISTGYYFHFVRRRPGQGLEWIGRIDPEDDSTKYAERFKDRATLTAQTSSNTAYLNLSSLTSEDTATYFCTTWRIYRDSSGRPFYVMDAWGQGASVTVSS
VL: DIQMTQSPASLSASLGETVSIECLASEDIYTYLTWYQQKPGKSPQLLIYGANKLQDGVPSRFSGSGSGTQYSLKISGIQPEDEGDYFCLQGSKFPLTFGSGTKLEIKR
Broadly, the EC50 (read off the curve) is the midpoint of the concentration-response curve. For B1, in assay [1], the IC50, LPS-stimulated IFNγ release, human PBMC, Donor 1 10% serum turned out to be 0.023; the IC50, LPS-stimulated IFNγ release, human PBMC, Donor 1 25% serum worked out at 0.069; the IC50, LPS-stimulated IFNγ release, human PBMC, Donor 3 10% serum was 0.033; the IC50, LPS-stimulated IFNγ release, human PBMC, Donor 3 25% serum was 0.086. Moreover, in assay [1], the complete inhibition of IL-18 mediated IFNγ release, LPS-stimulated human PBMC, 10% or 25% human serum was more than 1 µg/mL and the inhibition of LPS-induced IFNγ production in human PBMC was 1 µg/mL. Further, the concentration giving a half-maximal response (EC50 (read off the curve)) in assay [2] came to 0.04 µg/mL.
